Measurements: paper PMC8545432

Key:
[1] = molecular target: AcrIIA22 2-amino acid C-terminal truncation mutant (thrombin-cleaved) (unnamed clostridial genus CAG-217 (human gut metagenome)); assay: SEC; thrombin-cleaved AcrIIA22 variants; Superdex75 16/60; 25 mM Tris pH 7.5, 200 mM NaCl; size against protein standards
[2] = molecular target: AcrIIA22 (thrombin-cleaved, from the N-terminal His6 construct) (unnamed clostridial genus CAG-217 (human gut metagenome)); assay: as above

“AcrIIA22 2-amino acid C-terminal truncation mutant (thrombin-cleaved) (domain or fragment)” was tested, and the stoichiometry N [1] was 2.
Work on “AcrIIA22 (thrombin-cleaved, from the N-terminal His6 construct) (natural protein)” yielded a stoichiometry N [2] of 4.
